T1: recombinant chalcone synthase (CHS) (Arabidopsis, UniProt P13114 1-395)
T1 construct: chalcone synthase (CHS), Arabidopsis, At5g13930; The construct for recombinant CHS is not described; earlier work of the same laboratory may hold it (possibly with a carrier protein); also called recombinant CHS; source: E. coli BL21 (DE3) pLysS, purified (nickel column, FPLC)
T1 sequence (looked up): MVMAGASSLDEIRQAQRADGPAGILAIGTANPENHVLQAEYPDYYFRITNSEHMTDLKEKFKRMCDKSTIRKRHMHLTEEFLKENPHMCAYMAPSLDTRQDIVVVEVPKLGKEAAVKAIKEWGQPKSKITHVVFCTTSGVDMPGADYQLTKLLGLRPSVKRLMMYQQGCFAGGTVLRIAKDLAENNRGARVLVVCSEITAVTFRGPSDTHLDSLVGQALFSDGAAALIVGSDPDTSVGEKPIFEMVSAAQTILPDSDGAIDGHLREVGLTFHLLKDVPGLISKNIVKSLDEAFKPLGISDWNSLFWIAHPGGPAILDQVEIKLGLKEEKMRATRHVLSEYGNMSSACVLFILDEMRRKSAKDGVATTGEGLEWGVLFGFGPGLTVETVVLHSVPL


Columns and labels:
[1] = biological target: CHS-syfp2 fusion (Arabidopsis) (UniProt P13114); experiment: FRET or BRET; frequency domain FLIM-FRET in Arabidopsis tt4-11 mesophyll protoplasts; donor MOS9-scfp3a, acceptor SYFP2 fusions; E from phase-shift lifetimes
[2] = biological target: T1, recombinant chalcone synthase (CHS); experiment: SPR; CHS immobilised by amine coupling on a planar PEG/carboxyl chip (Reichert SR7000); MOS9 0.1-1 uM flowed over in 10 mM HEPES pH 7.5, 150 mM NaCl, 1 mg/ml BSA, 50 ul/min; KD from Koff/Kon; settings: both partners purified

FRET efficiency E τ(φ) [1] [%]	Kd [2] [nM]	Molecule
6.5	–	MOS9-scfp3a fusion (natural protein)
–	210	MOS9::V5::6xHis recombinant protein (natural protein, Arabidopsis, UniProt F4IDT4 1-193, looked up, MOS9, Arabidopsis, At1g12530, coding region minus the stop codon (193 amino acids), from clone pENTR221-AT1G12530, recombined into pET-DEST42; Gateway recombination leaves linker residues between MOS9 and the tags; also called At1g12530 protein; recombinant protein generated in E. coli from At1g12530 cDNA; source: E. coli BL21 (DE3) pLysS, purified (nickel column, FPLC); not shown: V5, …) MMGMARKISKEEVVEKLKDDGDFDRLRLKIIRRLKENEDLRNNMISVVKESTSLKRHGAQNMKTRQLSDAIFEEVGSKMLSQLSDGLWGIIRSEDGMKNEIRETVQSVYATLSNPRGEKRGTSAREMEHKIPTPKKEARTDFNTSPASKQKQELIKGAVEDNKGEACSDDVQDNKGEAYNDDEEDPELPPGFG

From paper PMC6151112, “Identification of MOS9 as an interaction partner for chalcone synthase in the nucleus” (PeerJ, 2018)
